Laboratory results reported in patent US7893197B2, “Relaxin-3 chimeric polypeptides and their preparation and use” (Janssen Pharmaceutica N.V., priority 2005, dated 2011).

Molecular target: T1, LGR7 (Homo sapiens, UniProt Q9HBX9)
T1 construct: Human LGR7 cDNA containing the complete coding region was PCR amplified; expressed in transfected cells
T1 sequence (Q9HBX9 1-757): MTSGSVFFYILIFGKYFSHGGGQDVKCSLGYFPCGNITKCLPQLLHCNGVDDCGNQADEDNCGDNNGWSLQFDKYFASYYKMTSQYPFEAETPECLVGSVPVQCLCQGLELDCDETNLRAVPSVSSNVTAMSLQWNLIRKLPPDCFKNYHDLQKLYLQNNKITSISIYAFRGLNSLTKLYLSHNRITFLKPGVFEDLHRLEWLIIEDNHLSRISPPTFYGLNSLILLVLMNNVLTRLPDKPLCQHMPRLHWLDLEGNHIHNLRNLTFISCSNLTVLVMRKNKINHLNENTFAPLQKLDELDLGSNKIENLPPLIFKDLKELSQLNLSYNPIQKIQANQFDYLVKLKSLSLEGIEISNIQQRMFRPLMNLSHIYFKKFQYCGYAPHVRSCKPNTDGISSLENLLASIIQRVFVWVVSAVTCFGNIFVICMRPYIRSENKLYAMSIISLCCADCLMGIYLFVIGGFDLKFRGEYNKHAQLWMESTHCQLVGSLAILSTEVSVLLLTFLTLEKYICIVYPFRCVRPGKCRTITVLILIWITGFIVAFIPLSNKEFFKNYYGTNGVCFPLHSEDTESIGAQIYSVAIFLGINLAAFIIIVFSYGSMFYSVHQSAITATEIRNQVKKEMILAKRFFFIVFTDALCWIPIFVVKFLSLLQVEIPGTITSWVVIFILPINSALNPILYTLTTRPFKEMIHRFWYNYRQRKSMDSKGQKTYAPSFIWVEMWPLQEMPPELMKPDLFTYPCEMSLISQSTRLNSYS
Experiment: Stimulation of β-galactosidase expression in SK-N-MC/β-gal cells
Assay type: cell-based
Procedure: FIGS. 1A-1D show the activation of GPCR135 and GPCR142 by relaxin-3 B-chain, but not of LGR7 or LGR8. In FIG. 1A, SK-N-MC/β-gal cells expressing human GPCR135 were stimulated with relaxin-3, relaxin-3 B-chain, porcine relaxin, or INSL3 at various concentrations to inhibit the forskolin stimulated β-galactosidase expression. Forskolin was added to cells at a final concentration of 5 μM to stimulate the β-galactosidase expression. FIG. 1B depicts results for SK-N-MC/β-gal cells expressing human GPCR142 stimulated as in FIG. 1A. In FIG. 1C, SK-N-MC/β-gal cells expressing human LGR7 were stimulated with relaxin-3, relaxin-3 B-chain, porcine relaxin, and INSL3 at various concentrations to induce the β-galactosidase expression. The intracellular β-galactosidase activities were measured by a colorimetric assay using CRGP as the substrate and reading the absorbance at a wavelength of 570 nm. For FIG. 1D, SK-N-MC/β-gal cells expressing human LGR8 were stimulated as in FIG. 1C.
FIGS. 4A-4D illustrate the evaluation of the agonist activity of relaxin-3 chimeric polypeptides in biofunctional assays. Different chimeric polypeptides at various concentrations were added to SK-N-MC/β-gal cells expressing human GPCR135 (FIG. 4A) or GPCR142 (FIG. 4B) to inhibit forskolin stimulated β-galactosidase expression. Human relaxin-3 was used as the positive control. In parallel, chimeric polypeptides at various concentrations were added to SK-N-MC/β-gal cells expressing human LGR7 (FIG. 4C) and LGR8 (FIG. 4D) to stimulate β-galactosidase expression. Relaxin-3 and INSL3 were used as positive controls for LGR7 and LGR8, respectively. Intracellular β-galactosidase activity was measured by a colorimetric assay using CRGP as the substrate and reading the absorbance at wavelength of 570 nm. Data represent mean±SEM (n=3).
It has been shown that synthetic human relaxin-3 B-chain alone, but not A-chain, is an agonist for both GPCR135 and GPCR142 (Liu et al., 2003, Journal of Biological Chemistry, 278:50754-50764 and Liu et al., 2003, Journal of Biological Chemistry, 278:50765-50770). Those studies were repeated herein in SK-N-MC/β-gal cells, which harbor a β-galactosidase gene under the control of a cAMP responsive element (CRE) (Liu et al., 2001, Molecular Pharmacology, 59:420-426). In such SK-N-MC/β-gal cells, an increase in intracellular cAMP concentration leads to increased β-galactosidase gene expression, the activity of which is measured using Chlorophenol Red-β-D-Galactopyranoside (CPRG) as the substrate.
The inventive chimeric polypeptides were each independently tested for their ability to activate either GPCR135, GPCR142, LGR7, or LGR8, respectively, in separate pools of SK-N-MC/β-gal cells (see supra), each pool stably expressing one of the respective receptors, as indicated (FIG. 4).
Cells were seeded in 96-well tissue culture plate at a density of 30,000 cells/well in MEM plus 10% fetal serum, sodium pyruvate, penicillin, streptomycin, and G418 (400 mg/L). For cells expressing GPCR135 or GPCR142, forskolin was added to cells at a final concentration of 5 μM to stimulate intracellular cAMP accumulation. Different concentrations of each of the inventive polypeptides were then added to the cells to inhibit the forskolin induced cAMP accumulation. For cells expressing LGR7 or LGR8, intracellular cAMP was stimulated with each of the inventive chimeric polypeptides at various concentrations.
For all cells, after adding the chimeric polypeptides, cells were incubated for 6 additional hours in 37° C. incubator. The media was then aspirated and the β-galactosidase activities measured as previously described (Liu et al., 2001, Molecular Pharmacology, 59:420-426). The results were analyzed by Prism 3.0 software. […]

**Q.** With “R3/I4: chimeric polypeptide: human relaxin-3 B-chain and INSL4 A-chain; mature polypeptide SEQ ID NO:22 (RAAPYGVRLCGREFIRAVIFTCGGSRWFDPFCCEVICDDGTSVKLC; Human Relaxin-3/Insulin-like 4 chimeric mature polypeptide)” as the substance, how does the “activation of LGR7, in words” value read?
**A.** no activity
